Source: paper PMC3218234

Tests used:
Assay in all cases: SPR
Settings in all cases: remark: other sources report otherwise
[1] = target: human IgG1-Fc homodimer glycoform Fc-1 (bisecting-GlcNAc-Man3GlcNAc2) (human)
[2] = target: wild type recombinant human IgG1-Fc homodimer carrying fucosylated complex type N-glycans (CT-Fc) (human)
[3] = target: human IgG1-Fc homodimer glycoform Fc-5 (Man3GlcNAc2) (human)

- Kd [1]: 2200 nM
- Kd [2]: 2100 nM
- Kd [3]: 2900 nM
B1: FcγRIIb, P31994 43-310 (receptor)
chain: TPAAPPKAVLKLEPQWINVLQEDSVTLTCRGTHSPESDSIQWFHNGNLIPTHTQPSYRFKANNNDSGEYTCQTGQTSLSDPVHLTVLSEWLVLQTPHLEFQEGETIVLRCHSWKDKPLVKVTFFQNGKSKKFSRSDPNFSIPQANHSHSGDYHCTGNIGYTLYSSKPVTITVQAP
modifications: not checked
